Consider six molecules from article PMC8795186, “Structural basis for safe and efficient energy conversion in a respiratory supercomplex” (Nature Communications, 2022).

To fix the notation:
T1: cyt bcc-aa3 (III2-IV2) supercomplex; QcrB sites (Corynebacterium glutamicum, UniProt Q79VE9)
T1 construct: native supercomplex purified from C. glutamicum membranes in DDM; dimer of 13-subunit protomers; with Cytochrome bc1 complex Rieske iron-sulfur subunit; Cytochrome bc1 complex cytochrome c subunit; Cytochrome c oxidase subunit 1; Cytochrome c oxidase subunit 2; Cytochrome c oxidase subunit 3; Cytochrome c oxidase polypeptide 4; Supercomplex subunit P29; Supercomplex subunit P20; Supercomplex subunit P12; Supercomplex subunit P8; Supercomplex subunit P6; ThiX
T1 sequence (Q79VE9 1-539): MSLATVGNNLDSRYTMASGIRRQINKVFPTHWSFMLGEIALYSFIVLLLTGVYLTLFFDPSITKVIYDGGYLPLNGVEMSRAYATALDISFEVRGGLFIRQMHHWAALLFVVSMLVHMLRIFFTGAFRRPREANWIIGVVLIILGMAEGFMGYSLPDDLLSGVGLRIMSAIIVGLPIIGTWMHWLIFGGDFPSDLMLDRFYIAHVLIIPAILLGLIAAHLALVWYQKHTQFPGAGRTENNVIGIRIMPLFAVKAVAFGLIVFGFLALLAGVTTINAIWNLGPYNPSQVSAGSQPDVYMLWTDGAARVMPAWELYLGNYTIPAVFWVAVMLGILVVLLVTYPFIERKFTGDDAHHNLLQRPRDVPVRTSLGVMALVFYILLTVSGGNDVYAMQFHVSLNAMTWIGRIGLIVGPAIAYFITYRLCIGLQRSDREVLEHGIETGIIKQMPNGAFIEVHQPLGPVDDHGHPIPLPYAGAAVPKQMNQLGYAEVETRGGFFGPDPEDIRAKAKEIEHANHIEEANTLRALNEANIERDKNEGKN

T2: cyt bcc-aa3 (III2-IV2) supercomplex; quinone sites of the cyt bcc complex (QcrB/QcrA) (Corynebacterium glutamicum, UniProt Q79VE8+Q79VE9)
T2 construct: native supercomplex purified from C. glutamicum membranes in DDM; dimer of 13-subunit protomers; with Cytochrome bc1 complex cytochrome c subunit; Cytochrome c oxidase subunit 1; Cytochrome c oxidase subunit 2; Cytochrome c oxidase subunit 3; Cytochrome c oxidase polypeptide 4; Supercomplex subunit P29; Supercomplex subunit P20; Supercomplex subunit P12; Supercomplex subunit P8; Supercomplex subunit P6; ThiX
T2 sequence (Q79VE9 1-539): T1 sequence (Q79VE9 1-539)
T2 sequence (Q79VE8 1-408): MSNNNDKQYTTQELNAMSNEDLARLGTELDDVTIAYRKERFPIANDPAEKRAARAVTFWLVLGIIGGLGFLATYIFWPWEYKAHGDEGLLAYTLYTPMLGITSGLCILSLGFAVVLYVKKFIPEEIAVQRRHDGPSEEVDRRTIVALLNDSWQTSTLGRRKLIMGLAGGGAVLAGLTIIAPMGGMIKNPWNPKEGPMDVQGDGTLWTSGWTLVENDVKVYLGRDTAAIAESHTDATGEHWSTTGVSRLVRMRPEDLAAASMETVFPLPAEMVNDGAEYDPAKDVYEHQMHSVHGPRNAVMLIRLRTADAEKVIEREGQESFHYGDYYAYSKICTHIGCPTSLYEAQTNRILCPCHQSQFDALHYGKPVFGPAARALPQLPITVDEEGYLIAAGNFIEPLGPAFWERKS

T3: CtaD, subunit of the cyt aa3 oxidase (haem a, haem a3, CuB) (Corynebacterium glutamicum, UniProt Q79VD7 1-584, His265 covalently bound to Tyr269)
T3 construct: CtaD, catalytic subunit (haem a, haem a3, CuB) of the cytochrome aa3 oxidase, Corynebacterium glutamicum; source: endogenous, purified from C. glutamicum membranes as part of the supercomplex (DDM, DEAE Sepharose, size exclusion)
T3 sequence (looked up): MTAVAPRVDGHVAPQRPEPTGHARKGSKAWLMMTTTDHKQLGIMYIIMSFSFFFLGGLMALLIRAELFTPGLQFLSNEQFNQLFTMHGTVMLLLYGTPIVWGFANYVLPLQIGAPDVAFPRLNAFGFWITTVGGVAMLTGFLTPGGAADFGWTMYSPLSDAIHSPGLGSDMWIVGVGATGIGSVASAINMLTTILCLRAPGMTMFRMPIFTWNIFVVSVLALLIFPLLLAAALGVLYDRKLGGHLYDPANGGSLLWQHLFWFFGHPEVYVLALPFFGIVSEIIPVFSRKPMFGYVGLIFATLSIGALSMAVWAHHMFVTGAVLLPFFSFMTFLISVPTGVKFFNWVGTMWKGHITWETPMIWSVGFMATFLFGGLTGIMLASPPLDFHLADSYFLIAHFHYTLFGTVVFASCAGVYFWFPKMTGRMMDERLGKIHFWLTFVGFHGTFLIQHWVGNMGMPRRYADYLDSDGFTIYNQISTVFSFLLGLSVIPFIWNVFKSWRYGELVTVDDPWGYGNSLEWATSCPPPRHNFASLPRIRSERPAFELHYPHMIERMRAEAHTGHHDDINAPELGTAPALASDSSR

B1: QcrB, cytochrome b subunit of the cyt bcc complex (natural protein, Corynebacterium glutamicum, UniProt Q79VE9 1-539, looked up)
chain: T1 sequence (Q79VE9 1-539)
notes: QcrB, cytochrome b subunit (haem bL, haem bH) of the cytochrome bcc complex, Corynebacterium glutamicum; has a 102 residue C-terminal extension; source: endogenous, purified from C. glutamicum membranes as part of the supercomplex (DDM, DEAE Sepharose, size exclusion)
B2: CtaF, subunit of the cyt aa3 oxidase (natural protein, Corynebacterium glutamicum, UniProt Q8NNK3 1-143, looked up)
chain: MKSSAKLMYGPTVFMAAMAVIYIFATMHVSDGGSVKGVEWVGSVALVLSAGLTLMLGVYLHFTEVRVDVLPEDWEEAEVADKAGTLGFFSPSSIWPAAMSGAVGFLAFGVVYFHYWMIAVGLMLLIFTITKLNLQYGVPKEKH
notes: CtaF, subunit of the cytochrome aa3 oxidase, Corynebacterium glutamicum; source: endogenous, purified from C. glutamicum membranes as part of the supercomplex (DDM, DEAE Sepharose, size exclusion)
B3: QcrA, Rieske-type iron-sulfur subunit of the cyt bcc complex (natural protein, Corynebacterium glutamicum, UniProt Q79VE8 1-408, looked up)
chain: T2 sequence (Q79VE8 1-408)
notes: QcrA, Rieske-type iron-sulfur (2Fe-2S) subunit of the cytochrome bcc complex, Corynebacterium glutamicum; Carries the 2Fe-2S cluster (ligands His335, His355); QcrA crosses the dimer; also called QcrA´ (the copy of the second protomer); Rieske homologous subunit; source: endogenous, purified from C. glutamicum membranes as part of the supercomplex (DDM, DEAE Sepharose, size exclusion)
B4: CtaE, subunit of the cyt aa3 oxidase (natural protein, Corynebacterium glutamicum, UniProt Q9AEL8 1-205, looked up)
chain: MTSAVGNTGMAAPQRVAALNRPNMVSVGTIVFLSQELMFFAGLFAMYFVSRANGLANGSWGEQTDHLNVPYALLITVILVSSSVTCQFGVFAAERGDVYGLRKWFLVTIILGSIFVIGQGYEYITLVGHGLTIQSSVYGSAFFITTGFHALHVIAGVMAFVVVLMRIHKSKFTPAQATAAMVVSYYWHFVDVVWIGLFITIYFIQ
notes: CtaE, subunit of the cytochrome aa3 oxidase, Corynebacterium glutamicum; source: endogenous, purified from C. glutamicum membranes as part of the supercomplex (DDM, DEAE Sepharose, size exclusion)

Data set [1] concerns the target T1, cyt bcc-aa3 (III2-IV2) supercomplex; QcrB sites. The experiment in a line: cryo-EM structure; absorption spectroscopy. It is filed as binding. Conditions: co-purified endogenous pigment; narrow tunnel of QcrB near Qo site.
For data set [2], the target named is T2, cyt bcc-aa3 (III2-IV2) supercomplex; quinone sites of the cyt bcc complex (QcrB/QcrA). Nature of the data set: cryo-EM structure, […] Å. The format is binding. The conditions noted are these: 20 µM stigmatellin, 2.5 mM azide also present; Qo site, transition-state analogue; QcrB and His355 of QcrA.
The target in data set [3] is T3, CtaD, subunit of the cyt aa3 oxidase …. Nature of the data set: cryo-EM structure; supercomplex purified from C. glutamicum membranes in DDM, 10 mg/ml; with 20 µM stigmatellin and 2.5 mM sodium azide (2.8 Å) and as isolated (3.1 Å). Conditions: both partners purified.
In data set [4] the target is B1. Described as above. Conditions: both partners purified.
Data set [5] concerns the molecule itself. Described as above.

As to `CC(C)=CCC/C(C)=C/C=C/C(C)=C/C=C/C(C)=C/C=C/C=C(C)/C=C/C=C(C)/C=C/C=C(\C)CCC=C(C)C` [lycopene], the “cryo-EM structure; absorption spectroscopy” value in data set [1] is listed as “a lycopene molecule is resolved in a narrow tunnel of QcrB”.

With `C/C=C(C)/C=C/C=C/[C@H](OC)[C@@H](C)[C@@H](OC)[C@@H](C)CCc1oc2c(O)c(OC)cc(OC)c2c(=O)c1C` [stigmatellin], the “cryo-EM structure, 2.8 Å” value in data set [2] was “The cryo-EM map clearly resolves stigmatellin bound between FeS and haem bL”.

Consider B1, for which the binding result in data set [3] was “binds”.

B2: in data set [4], the binding result is given as “binds”.

B3: the binding result in data set [4] and in data set [5] was “binds” throughout.

For the molecule B4, the binding result in data set [4] is recorded as “binds”.
